T1: Myo5, Q04439
T1 sequence (Q04439 1072-1160, looked up): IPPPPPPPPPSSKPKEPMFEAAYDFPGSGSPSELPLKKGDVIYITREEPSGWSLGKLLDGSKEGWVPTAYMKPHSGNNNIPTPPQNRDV

T2: Abp1, P15891
T2 sequence (P15891 535-592, looked up): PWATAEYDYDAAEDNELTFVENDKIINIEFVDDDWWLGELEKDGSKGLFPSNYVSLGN

T3: Pex13, P80667
T3 sequence (P80667 295-386, looked up): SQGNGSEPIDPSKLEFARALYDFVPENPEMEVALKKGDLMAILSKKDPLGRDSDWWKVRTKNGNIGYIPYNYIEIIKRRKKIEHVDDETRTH

T4: Boi2, P39969
T4 sequence (P39969 32-116, looked up): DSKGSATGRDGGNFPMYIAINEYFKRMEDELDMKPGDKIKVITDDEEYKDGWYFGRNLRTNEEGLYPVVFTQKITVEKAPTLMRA

T5: Cyk3, Q07533
T5 sequence (Q07533 1-83, looked up): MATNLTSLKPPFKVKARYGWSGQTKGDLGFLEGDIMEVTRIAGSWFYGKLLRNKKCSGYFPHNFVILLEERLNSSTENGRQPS

T6: Bbc1, P47068
T6 sequence (P47068 1-78, looked up): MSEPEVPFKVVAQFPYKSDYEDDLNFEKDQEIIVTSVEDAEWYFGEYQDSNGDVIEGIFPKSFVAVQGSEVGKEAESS

T7: Bzz1-2, P38822
T7 sequence (P38822 568-633, looked up): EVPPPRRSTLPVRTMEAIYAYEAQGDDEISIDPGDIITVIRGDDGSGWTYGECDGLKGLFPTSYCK

T8: Hof1, Q05080
T8 sequence (Q05080 590-669, looked up): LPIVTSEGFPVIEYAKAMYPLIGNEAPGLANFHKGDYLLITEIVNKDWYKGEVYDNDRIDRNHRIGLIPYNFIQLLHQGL

T9: Sla1-3, P32790
T9 sequence (P32790 344-424, looked up): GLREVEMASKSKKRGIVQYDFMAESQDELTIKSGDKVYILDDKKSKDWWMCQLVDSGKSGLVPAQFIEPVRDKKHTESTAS

T10: Boi1, P38041
T10 sequence (P38041 1-86, looked up): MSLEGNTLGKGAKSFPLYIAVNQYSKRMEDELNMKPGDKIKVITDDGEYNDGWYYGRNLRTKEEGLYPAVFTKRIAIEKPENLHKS

T11: Bud14, P27637
T11 sequence (P27637 247-328, looked up): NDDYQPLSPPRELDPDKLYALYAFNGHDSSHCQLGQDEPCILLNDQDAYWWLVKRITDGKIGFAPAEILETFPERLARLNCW

T12: Pin3, Q06449
T12 sequence (Q06449 53-122, looked up): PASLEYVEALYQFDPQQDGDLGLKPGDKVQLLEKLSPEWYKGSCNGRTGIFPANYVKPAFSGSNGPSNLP

T13: Lsb3, P43603
T13 sequence (P43603 385-451, looked up): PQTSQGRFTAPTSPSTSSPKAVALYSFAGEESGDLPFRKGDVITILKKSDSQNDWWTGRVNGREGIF

T14: Sla1-2, P32790
T14 sequence (P32790 60-140, looked up): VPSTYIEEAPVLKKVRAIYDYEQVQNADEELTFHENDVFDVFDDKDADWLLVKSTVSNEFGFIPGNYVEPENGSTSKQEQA

T15: Cdc25, P04821
T15 sequence (P04821 50-136, looked up): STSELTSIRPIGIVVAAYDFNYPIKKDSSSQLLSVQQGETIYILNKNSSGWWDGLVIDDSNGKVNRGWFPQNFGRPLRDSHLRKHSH

T16: Nbp2, Q12163
T16 sequence (Q12163 103-180, looked up): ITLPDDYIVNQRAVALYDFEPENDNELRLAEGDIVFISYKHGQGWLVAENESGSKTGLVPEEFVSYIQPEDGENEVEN

T17: Hse1, P38753
T17 sequence (P38753 208-285, looked up): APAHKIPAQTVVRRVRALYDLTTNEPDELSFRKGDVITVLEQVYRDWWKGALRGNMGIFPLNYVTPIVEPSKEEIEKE

T18: Bzz1-1, P38822
T18 sequence (P38822 478-572, looked up): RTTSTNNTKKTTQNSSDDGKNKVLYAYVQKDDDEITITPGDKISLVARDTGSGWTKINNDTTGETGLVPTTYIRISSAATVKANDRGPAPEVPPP

T19: Lsb1, P53281
T19 sequence (P53281 45-122, looked up): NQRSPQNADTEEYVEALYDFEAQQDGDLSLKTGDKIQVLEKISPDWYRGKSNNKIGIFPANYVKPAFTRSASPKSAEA

T20: Fus1, P11710
T20 sequence (P11710 432-512, looked up): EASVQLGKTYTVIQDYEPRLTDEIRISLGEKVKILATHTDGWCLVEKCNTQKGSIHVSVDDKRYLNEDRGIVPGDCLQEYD

T21: Lsb4, P32793
T21 sequence (P32793 402-468, looked up): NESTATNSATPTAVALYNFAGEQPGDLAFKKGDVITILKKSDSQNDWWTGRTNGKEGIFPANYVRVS


These binders were tested against T1, Myo5, Q04439 (assay: SPOT array). Conditions: median of control spots 471.

SPOT intensity	Binder
593	GKFIPSRPAPKPPSS
367	VDFTLPPPPPPPGLD
306	DFTLPPPPPPPGLDE

What follows are binders tested against Sho1, P40073 (assay: SPOT array). Conditions: median of control spots 1148.
Sho1, P40073, sequence (P40073 287-367): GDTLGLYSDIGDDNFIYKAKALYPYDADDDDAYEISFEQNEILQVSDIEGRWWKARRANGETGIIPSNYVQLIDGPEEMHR

SPOT intensity	Binder
22	GKFIPSRPAPKPPSS
0	VDFTLPPPPPPPGLD
0	DFTLPPPPPPPGLDE

The binders below were run against T2, Abp1, P15891 (assay: SPOT array). Conditions: median of control spots 935.

SPOT intensity	Binder
231	GKFIPSRPAPKPPSS
0	VDFTLPPPPPPPGLD
0	DFTLPPPPPPPGLDE

These binders were tested against Rvs167, P39743 (assay: SPOT array). Conditions: median of control spots 2707.
Rvs167, P39743, sequence (P39743 419-482): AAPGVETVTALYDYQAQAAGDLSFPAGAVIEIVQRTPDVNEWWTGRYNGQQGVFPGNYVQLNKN

SPOT intensity	Binder
5	GKFIPSRPAPKPPSS
0	VDFTLPPPPPPPGLD
0	DFTLPPPPPPPGLDE

Each binder was assayed against T3, Pex13, P80667 (assay: SPOT array). Conditions: median of control spots 1341.

SPOT intensity	Binder
362	GKFIPSRPAPKPPSS
2	VDFTLPPPPPPPGLD
0	DFTLPPPPPPPGLDE

What follows are binders tested against T4, Boi2, P39969 (assay: SPOT array). Conditions: median of control spots 1161.

SPOT intensity	Binder
4	GKFIPSRPAPKPPSS
0	VDFTLPPPPPPPGLD
0	DFTLPPPPPPPGLDE

What follows are binders tested against Bem1-1, P29366 (assay: SPOT array). Conditions: median of control spots 4282.
Bem1-1, P29366, sequence (P29366 55-141): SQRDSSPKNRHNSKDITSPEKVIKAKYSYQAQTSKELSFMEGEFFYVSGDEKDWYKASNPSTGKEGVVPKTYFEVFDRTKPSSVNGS

SPOT intensity	Binder
1	GKFIPSRPAPKPPSS
0	VDFTLPPPPPPPGLD
0	DFTLPPPPPPPGLDE

These binders were tested against Myo3, P36006 (assay: SPOT array). Conditions: median of control spots 468.

SPOT intensity	Binder
553	GKFIPSRPAPKPPSS
491	VDFTLPPPPPPPGLD
345	DFTLPPPPPPPGLDE

These binders were tested against T5, Cyk3, Q07533 (assay: SPOT array). Conditions: median of control spots 1451.

SPOT intensity	Binder
2	GKFIPSRPAPKPPSS
0	VDFTLPPPPPPPGLD
0	DFTLPPPPPPPGLDE

What follows are binders tested against T6, Bbc1, P47068 (assay: SPOT array). Conditions: median of control spots 796.

SPOT intensity	Binder
138	GKFIPSRPAPKPPSS
0	VDFTLPPPPPPPGLD
0	DFTLPPPPPPPGLDE

What follows are binders tested against T7, Bzz1-2, P38822 (assay: SPOT array). Conditions: median of control spots 4538.

SPOT intensity	Binder
52	GKFIPSRPAPKPPSS
1	VDFTLPPPPPPPGLD
0	DFTLPPPPPPPGLDE

The binders below were run against T8, Hof1, Q05080 (assay: SPOT array). Conditions: median of control spots 4086.

SPOT intensity	Binder
0	GKFIPSRPAPKPPSS
143	VDFTLPPPPPPPGLD
6	DFTLPPPPPPPGLDE

These binders were tested against T9, Sla1-3, P32790 (assay: SPOT array). Conditions: median of control spots 5475.

SPOT intensity	Binder
492	GKFIPSRPAPKPPSS
0	VDFTLPPPPPPPGLD
0	DFTLPPPPPPPGLDE

These binders were tested against T10, Boi1, P38041 (assay: SPOT array). Conditions: median of control spots 1162.

SPOT intensity	Binder
3	GKFIPSRPAPKPPSS
2	VDFTLPPPPPPPGLD
0	DFTLPPPPPPPGLDE

These binders were tested against T11, Bud14, P27637 (assay: SPOT array). Conditions: median of control spots 956.

SPOT intensity	Binder
0	GKFIPSRPAPKPPSS
0	VDFTLPPPPPPPGLD
0	DFTLPPPPPPPGLDE

Each binder was assayed against T12, Pin3, Q06449 (assay: SPOT array). Conditions: median of control spots 2171.

SPOT intensity	Binder
12	GKFIPSRPAPKPPSS
0	VDFTLPPPPPPPGLD
0	DFTLPPPPPPPGLDE

What follows are binders tested against T13, Lsb3, P43603 (assay: SPOT array). Conditions: median of control spots 406.

SPOT intensity	Binder
21	GKFIPSRPAPKPPSS
0	VDFTLPPPPPPPGLD
0	DFTLPPPPPPPGLDE

What follows are binders tested against T14, Sla1-2, P32790 (assay: SPOT array). Conditions: median of control spots 712.

SPOT intensity	Binder
0	GKFIPSRPAPKPPSS
1	VDFTLPPPPPPPGLD
0	DFTLPPPPPPPGLDE

These binders were tested against T15, Cdc25, P04821 (assay: SPOT array). Conditions: median of control spots 969.

SPOT intensity	Binder
4	GKFIPSRPAPKPPSS
0	VDFTLPPPPPPPGLD
0	DFTLPPPPPPPGLDE

Each binder was assayed against T16, Nbp2, Q12163 (assay: SPOT array). Conditions: median of control spots 357.

SPOT intensity	Binder
2880	GKFIPSRPAPKPPSS
0	VDFTLPPPPPPPGLD
3	DFTLPPPPPPPGLDE

What follows are binders tested against Bem1-2, P29366 (assay: SPOT array). Conditions: median of control spots 4347.
Bem1-2, P29366, sequence (P29366 139-227): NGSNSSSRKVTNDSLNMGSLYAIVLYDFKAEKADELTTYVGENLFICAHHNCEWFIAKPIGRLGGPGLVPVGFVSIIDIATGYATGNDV

SPOT intensity	Binder
14600	GKFIPSRPAPKPPSS
0	VDFTLPPPPPPPGLD
1	DFTLPPPPPPPGLDE

Each binder was assayed against T17, Hse1, P38753 (assay: SPOT array). Conditions: median of control spots 1727.

SPOT intensity	Binder
0	GKFIPSRPAPKPPSS
0	VDFTLPPPPPPPGLD
0	DFTLPPPPPPPGLDE

These binders were tested against T18, Bzz1-1, P38822 (assay: SPOT array). Conditions: median of control spots 4446.

SPOT intensity	Binder
2	GKFIPSRPAPKPPSS
1	VDFTLPPPPPPPGLD
0	DFTLPPPPPPPGLDE

Each binder was assayed against GST (assay: SPOT array). Conditions: median of control spots 978.

SPOT intensity	Binder
0	GKFIPSRPAPKPPSS
0	VDFTLPPPPPPPGLD
1	DFTLPPPPPPPGLDE

These binders were tested against T19, Lsb1, P53281 (assay: SPOT array). Conditions: median of control spots 388.

SPOT intensity	Binder
360	GKFIPSRPAPKPPSS
0	VDFTLPPPPPPPGLD
0	DFTLPPPPPPPGLDE

What follows are binders tested against T20, Fus1, P11710 (assay: SPOT array). Conditions: median of control spots 1200.

SPOT intensity	Binder
0	GKFIPSRPAPKPPSS
0	VDFTLPPPPPPPGLD
0	DFTLPPPPPPPGLDE

These binders were tested against T21, Lsb4, P32793 (assay: SPOT array). Conditions: median of control spots 397.

SPOT intensity	Binder
56	GKFIPSRPAPKPPSS
0	VDFTLPPPPPPPGLD
0	DFTLPPPPPPPGLDE
